A short description of this series: self-splicing fitness, log relative to wild type (ln ratio); higher = more splicing; Tetrahymena group I intron in knt gene, E. coli kanamycin selection, DiMSum; sequences stand for … in CUCUCU…GGAGGGAAAAGUUAUCAGGCAUGCACCUGGUAGCUAGUCUUUAAACCAAUAGAUUGCAUCGGUUUAAAAGGCAAGACCGUCAAAUUGCGGGAAAGGGGUCAACAGCCGUUCAGUACCAAGUCUCAGGGGAAACUUUGAGAUGGCCUUGCAAAGGGUAUGGUAAUAAGCUGACGGACAUGGUCCUAACCACGCAGCCAAGUCCUAAGUCAACAGAUCUUCUGUUGAUAUGGAUGCAGUUCACAGACUAAAUGUCGGUCGGGGAAGAUGUAUUCUUCUCAUAAGAUAUAGUCGGACCUCUCCUUAAUGGGAGCUAGCGGAUGAAGUGAUGCAACACUGGAGCCGCUGGGAACUAAUUUGUAUGCGAAAGUAUAUUGAUUAGUUUUGGAGUACUCGUGGUCG
A digest of the protocol:
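Fitness was computed with DiMSum as the error-weighted combination of replicate fold changes, kanamycin versus none, each normalised to wild type. The library randomised all eight intron nucleotides of the P1ex region, with the intron placed in the knt kanamycin-resistance gene on pET-22b(+) in E. coli BL21(DE3). Six replicate transformations were grown overnight at 37°C or 30°C on LB agar with or without 25 μg/mL kanamycin, plus 100 μg/mL carbenicillin, 50 μM IPTG and 0.2% rhamnose. Pooled colonies were amplicon-sequenced on an Illumina HiSeq 2500.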

We go through 37 sequences from the supplement of paper PMC7877785.

± gives the uncertainty stated by the source.

For the sequence GGCGAGCAAUAUUACGGCAU, the “self-splicing fitness (ln)” value was -0.523 ± 0.13 (30 °C) and 0.0629 ± 0.15 (37 °C).

With GGCGAGCAAUAUUACGGGAA, the “self-splicing fitness (ln)” value is -2.55 ± 0.3 (30 °C) and -1.74 ± 0.43 (37 °C).

GGCGAGCAAUAUUACGGGCG: the “self-splicing fitness (ln)” value is, setting by setting: (30 °C) -0.296 ± 0.12; (37 °C) 0.0537 ± 0.14.

As to GGCGAGCAAUAUUACGGUCA, the “self-splicing fitness (ln)” value reads like this: (30 °C) 0.0811 ± 0.15; (37 °C) -0.103 ± 0.13.

As for GGCGAGCAAUAUUACGGUCU, the “self-splicing fitness (ln)” value reads like this: (30 °C) -1.89 ± 0.2; (37 °C) -1.03 ± 0.21.

For the sequence GGCGAGCAAUAUUACGGUGA, the “self-splicing fitness (ln)” value is, setting by setting: (30 °C) -2.82 ± 0.089; (37 °C) -1.39 ± 0.081.

As for GGCGAGCAAUAUUACGGUGC, the “self-splicing fitness (ln)” value is -2.76 ± 0.16 (30 °C) and -1.86 ± 0.23 (37 °C).

Turning to GGCGAGCAAUAUUACGUAGU, the “self-splicing fitness (ln)” value was -1.57 ± 0.13 (30 °C) and -0.422 ± 0.14 (37 °C).

As to GGCGAGCAAUAUUACGUGCC, the “self-splicing fitness (ln)” value (37 °C) was -2.25 ± 0.45.

Take GGCGAGCAAUAUUACGUUCG: the “self-splicing fitness (ln)” value (30 °C) is -3.74 ± 0.27 and the “self-splicing fitness (ln)” value (37 °C) is -1.59 ± 0.3.

As for GGCGAGCAAUAUUACGUUUG, the “self-splicing fitness (ln)” value by setting is: (30 °C) -2.31 ± 0.21; (37 °C) -2.78 ± 0.38.

As to GGCUAGCAAUAUUACGAACU, the “self-splicing fitness (ln)” value is, setting by setting: (30 °C) -0.723 ± 0.25; (37 °C) 0.433 ± 0.25.

Consider GGCUAGCAAUAUUACGAGCG, for which the “self-splicing fitness (ln)” value is -1.17 ± 0.14 (30 °C) and -0.288 ± 0.17 (37 °C).

Turning to GGCUAGCAAUAUUACGAUCU, the “self-splicing fitness (ln)” value runs as follows: (30 °C) -0.432 ± 0.1; (37 °C) 0.129 ± 0.12.

With GGCUAGCAAUAUUACGCAUG, the “self-splicing fitness (ln)” value was -1.11 ± 0.11 (30 °C) and -1.04 ± 0.11 (37 °C).

In the case of GGCUAGCAAUAUUACGCAUU, the “self-splicing fitness (ln)” value (30 °C) is -0.352 ± 0.074 and the “self-splicing fitness (ln)” value (37 °C) turned out to be 0.553 ± 0.086.

Regarding GGCUAGCAAUAUUACGCCUG, the “self-splicing fitness (ln)” value was -3.72 ± 0.29 (30 °C) and -1.95 ± 0.23 (37 °C).

Turning to GGCUAGCAAUAUUACGCGCG, the “self-splicing fitness (ln)” value by setting is: (30 °C) -0.69 ± 0.14; (37 °C) 0.174 ± 0.17.

With GGCUAGCAAUAUUACGCUGC, the “self-splicing fitness (ln)” value is, setting by setting: (30 °C) -3.21 ± 0.19; (37 °C) -2.65 ± 0.19.

For the sequence GGCUAGCAAUAUUACGGAAG, the “self-splicing fitness (ln)” value (30 °C) was -1.13 ± 0.11 and the “self-splicing fitness (ln)” value (37 °C) was -0.386 ± 0.14.

Turning to GGCUAGCAAUAUUACGGACC, the “self-splicing fitness (ln)” value is -1.67 ± 0.14 (30 °C) and -0.619 ± 0.2 (37 °C).

Take GGCUAGCAAUAUUACGGACU: the “self-splicing fitness (ln)” value is -0.601 ± 0.081 (30 °C) and 0.198 ± 0.098 (37 °C).

In the case of GGCUAGCAAUAUUACGGAGC, the “self-splicing fitness (ln)” value by setting is: (30 °C) -3.22 ± 0.22; (37 °C) -2.25 ± 0.26.

Consider GGCUAGCAAUAUUACGGAGG, for which the “self-splicing fitness (ln)” value (30 °C) was -3.21 ± 0.26 and the “self-splicing fitness (ln)” value (37 °C) was -1.58 ± 0.2.

As for GGCUAGCAAUAUUACGGAUC, the “self-splicing fitness (ln)” value reads like this: (30 °C) -0.815 ± 0.23; (37 °C) 0.314 ± 0.2.

GGCUAGCAAUAUUACGGCAA: the “self-splicing fitness (ln)” value (30 °C) was 0.218 ± 0.07 and the “self-splicing fitness (ln)” value (37 °C) was -0.682 ± 0.086.

With GGCUAGCAAUAUUACGGCAC, the “self-splicing fitness (ln)” value reads like this: (30 °C) 0.203 ± 0.13; (37 °C) -0.036 ± 0.14.

Take GGCUAGCAAUAUUACGGGUA: the “self-splicing fitness (ln)” value (30 °C) is -0.679 ± 0.12 and the “self-splicing fitness (ln)” value (37 °C) is -0.368 ± 0.11.

On to GGCUAGCAAUAUUACGUAGG, for which the “self-splicing fitness (ln)” value (30 °C) was -1.96 ± 0.14 and the “self-splicing fitness (ln)” value (37 °C) was -1.78 ± 0.13.

Regarding GGCUAGCAAUAUUACGUAUA, the “self-splicing fitness (ln)” value reads like this: (30 °C) -1.27 ± 0.22; (37 °C) -0.659 ± 0.19.

As for GGCUAGCAAUAUUACGUCCU, the “self-splicing fitness (ln)” value is, setting by setting: (30 °C) -1.68 ± 0.1; (37 °C) -1.3 ± 0.13.

In the case of GGCUAGCAAUAUUACGUUAG, the “self-splicing fitness (ln)” value is -3.51 ± 0.32 (30 °C) and -0.919 ± 0.24 (37 °C).

As to GGCUAGCAAUAUUACGUUUA, the “self-splicing fitness (ln)” value is -0.381 ± 0.15 (30 °C) and -0.882 ± 0.16 (37 °C).

In the case of GGGAAGCAAUAUUACGAAAU, the “self-splicing fitness (ln)” value runs as follows: (30 °C) -3.24 ± 0.19; (37 °C) -2.26 ± 0.22.

As for GGGAAGCAAUAUUACGACAC, the “self-splicing fitness (ln)” value by setting is: (30 °C) -0.539 ± 0.25; (37 °C) 0.0269 ± 0.38.

Consider GGGAAGCAAUAUUACGAGCU, for which the “self-splicing fitness (ln)” value reads like this: (30 °C) -0.998 ± 0.29; (37 °C) -0.3 ± 0.36.

Regarding GGGAAGCAAUAUUACGAUCA, the “self-splicing fitness (ln)” value is -0.768 ± 0.33 (30 °C) and -0.0795 ± 0.35 (37 °C).
